Data: US20210388087A1 (Chugai, published 2021)
Positions count from the first letter of the chain named. In names and notes the source's numbering stands. Where no end group is shown, it is not given here.

What was measured:
Human CD137 ECD = target: T1, Human CD137 ECD (human); assay: SPR (Biacore), affinity of single-mutation variant against parental H183/L072
T1 construct: also called human CD137 extracellular domain; hCD137

human CD3 ed = human CD3 ed (human, UniProt P07766 23-126; P04234 22-105, limits assumed); assay: SPR Biacore T200, IgG captured on protein A, 25 C;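 note: antigens diluted in ACES running buffer at pH 7.4 were flowed over antibodies held on a CM3 chip bearing amine-coupled protein A, with buffer alone serving as blank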
cyno CD137 = target: T2, cyno CD137 (cynomolgus monkey, UniProt Q07011 24-186 (human entry), limits assumed); assay: SPR Biacore T200, IgG captured on protein A, 25 C;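 note: antigens diluted in ACES running buffer at pH 7.4 were flowed over antibodies held on a CM3 chip bearing amine-coupled protein A, with buffer alone serving as blank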
T2 construct: also called cynomolgus monkey CD137
T2 chain: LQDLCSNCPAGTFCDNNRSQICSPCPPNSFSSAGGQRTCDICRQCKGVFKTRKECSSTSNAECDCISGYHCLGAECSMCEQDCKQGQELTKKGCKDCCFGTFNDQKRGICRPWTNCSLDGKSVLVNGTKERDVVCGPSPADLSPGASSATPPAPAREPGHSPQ

human CD137 = human CD137 (human, UniProt Q07011 24-186); assay: SPR Biacore T200, IgG captured on protein A, 25 C;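 note: antigens diluted in ACES running buffer at pH 7.4 were flowed over antibodies held on a CM3 chip bearing amine-coupled protein A, with buffer alone serving as blank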
[1] = target: T3, biotin-labeled human CD137 fused to human IgG1 Fc fragment (human, biotin-labeled); assay: competitive ELISA on biotin-human CD137-Fc; competitor free CD3e 62.5 pmol
T3 construct: also called human CD137-Fc; biotin-human CD137-Fc; not shown: human IgG1 Fc fragment

[2] = target: T3, biotin-labeled human CD137 fused to …; assay: competitive ELISA on biotin-human CD137-Fc; free CD3e vs free Fc
[3] = target: T3, biotin-labeled human CD137 fused to …; assay: competitive ELISA on biotin-human CD137-Fc; free Fc 62.5 pmol (control)
Human CD3eg linker = target: T4, Human CD3eg linker (human); assay: affinity relative to template H183/L072, single-mutation scan
T4 construct: Single chain: CD3 epsilon and gamma subunits joined by a 29-mer linker, Flag-tag at the C-terminus; also called recombinant human CD3
T4 chain: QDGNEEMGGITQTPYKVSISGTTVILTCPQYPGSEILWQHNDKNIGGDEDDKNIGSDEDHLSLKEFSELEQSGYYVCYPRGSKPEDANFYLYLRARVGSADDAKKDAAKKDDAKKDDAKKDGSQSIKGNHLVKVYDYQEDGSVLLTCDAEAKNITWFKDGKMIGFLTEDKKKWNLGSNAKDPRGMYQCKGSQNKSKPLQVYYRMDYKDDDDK

cyno CD137-Fc = target: T5, cyno CD137-Fc (cynomolgus monkey; human, limits assumed, biotin-labeled); assay: bead ELISA, IgG on biotinylated antigen, luminescence;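 note: biotinylated antigen captured on streptavidin magnetic beads, then incubated with purified IgG at 50 ng/µL for 1 h at room temperature before detection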
T5 construct: whole entry 92 named; also called biotin-labeled cynomolgus monkey CD137 fused to human IgG1 Fc fragment; not shown: human IgG1 Fc fragment
T5 chain: T2 chain

human CD137-Fc [4] = target: T6, human CD137-Fc (human, biotin-labeled); assay: as above
T6 construct: if 90 already holds the Fc, drop the second piece; also called biotin-labeled human CD137 fused to human IgG1 Fc fragment; biotin-human CD137-Fc; not shown: human IgG1 Fc fragment

human CD137-Fc [5] = target: T6, human CD137-Fc; assay: bead ELISA on biotin-human CD137-Fc, 125 vs 0 pmol free CD3e peptide;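 note: target captured on streptavidin-coated magnetic beads, signal read as fluorescence 2 min after adding APS-5 substrate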
[6] = target: T7, Biotin-labeled CD3 epsilon peptide antigen (human, also: biotin-labeled, site not given here); assay: bead ELISA, IgG on biotinylated CD3 epsilon peptide, luminescence
T7 construct: also called CD3 peptide
T7 peptide: QDGNEEMGGITQTPY

human CD137-Fc [7] = target: T6, human CD137-Fc; assay: bead ELISA on biotin-human CD137-Fc with 125 pmol/well free CD3e peptide as competitor;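 note: Streptavidin-coated magnetic beads in blocking buffer as the capture surface, well signal read as fluorescence 2 min after adding APS-5 substrate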
human CD137-Fc [8] = target: T6, human CD137-Fc; assay: bead ELISA on biotin-human CD137-Fc, 0 pmol free CD3e peptide

B1: Dual-Fab H183/L072 variant with single light chain mutation F55Y (Kabat) (antibody, name in Kabat numbering, V domains shown)
VH: QVQLVESGGGLVQPGRSLRLSCAASGFTFSNAWMHWVRQAPGKGLEWVAQIKDKGNAYAAYYAPSVKGRFTISRDDSKNSIYLQMNSLKTEDTAVYYCHYVHYASASTVLPAFGVDAWGQGTTVTVSS
VL: DIVMTQSPLSLPVTPGEPASISCQASQELVHMNRNTYLHWYQQKPGQAPRLLIYKVSNRYPGVPDRFSGSGSGTDFTLKISRVEAEDVGVYYCAQGTSVPFTFGQGTKLEIK
notes: expressed as an antibody in Expi293 and purified on Protein A; also called dBBDu183H / dBBDu072L F55Y
With B1 the “fold change of affinity for CD137” value (Human CD137 ECD) was 0 fold.

B2: dBBDu167/L094 (antibody, V domains shown)
VH: B1 VH with A57L, S107G, T108G, V109G, A112G
VL: B1 VL with Q24Y, Q27E, V30L, M32I, N35H, T36I, S57Y, Y60F, P61N, T97S
notes: IgG format; constant regions not specified; also called dBBDu_167 dBBDu.L094
Binder B2 has a Kd (human CD3 ed) of 0.349 µM, a koff (human CD3 ed) of 0.021 s⁻¹ and a kon (human CD3 ed) of 60200 M⁻¹ s⁻¹. It also gave a Kd (cyno CD137) of 6.92 µM, a koff (cyno CD137) of 0.0748 s⁻¹ and a kon (cyno CD137) of 10800 M⁻¹ s⁻¹. It also gave a Kd (human CD137) of 8.43 µM, a koff (human CD137) of 0.0102 s⁻¹ and a kon (human CD137) of 1210 M⁻¹ s⁻¹. The ELISA signal [1] was 4370, the Signal decrease [2] was 96.9% and the ELISA signal [3] was 141000.

B3: Dual-Fab H183/L072 variant with single light chain mutation T97Y (Kabat) (antibody, name in Kabat numbering, V domains shown)
VH: B1 VH
VL: B1 VL with Y60F, T102Y
notes: expressed as an antibody in Expi293 and purified on Protein A; also called dBBDu183H / dBBDu072L T97Y
B3 was tested, and the “fold change of affinity for CD137” value (Human CD137 ECD) was 0.3 fold.

B4: Dual-Fab H183/L072 variant with single light chain mutation G91Y (Kabat) (antibody, name in Kabat numbering, V domains shown)
VH: B1 VH
VL: B1 VL with Y60F, G96Y
notes: expressed as an antibody in Expi293 and purified on Protein A; also called dBBDu183H / dBBDu072L G91Y
B4 was tested, and the “fold change of affinity for CD137” value (Human CD137 ECD) was 0 fold.

B5: H183/L072 with A89Y (Kabat) in VL dBBDu072L (antibody, name in Kabat numbering, V domains shown)
VH: B1 VH
VL: B1 VL with Y60F, A94Y
notes: Single-mutation variant of H183L072
For B5, the “fold change of affinity for CD3” value (Human CD3eg linker) was 0.5 fold.

B6: Dual-Fab H183/L072 variant with single light chain mutation N53Y (Kabat) (antibody, name in Kabat numbering, V domains shown)
VH: B1 VH
VL: B1 VL with N58Y, Y60F
notes: expressed as an antibody in Expi293 and purified on Protein A; also called dBBDu183H / dBBDu072L N53Y
With B6 the “fold change of affinity for CD137” value (Human CD137 ECD) was 0.3 fold.

B7: Dual-Fab H183/L072 variant with single light chain mutation R54Y (Kabat) (antibody, name in Kabat numbering, V domains shown)
VH: B1 VH
VL: B1 VL with R59Y, Y60F
notes: expressed as an antibody in Expi293 and purified on Protein A; also called dBBDu183H / dBBDu072L R54Y
B7 was tested, and the “fold change of affinity for CD137” value (Human CD137 ECD) was 0.2 fold.

B8: DXDU01_3#072 (antibody, V domains shown)
VH: B1 VH with K54R, G55S, N56Q, A57L, P111G, F113Y
VL: B1 VL with Q24R, A25S, E28S, M32S, Y60F, P61S, A94G, S98Q, F101Y
notes: Human IgG1; light chain GLS3000 (kappa); also called dBBDu122
For B8, the RLU (cyno CD137-Fc) was 3350 RLU, the “S/N ratio (cyno CD137-Fc/Fc)” value (cyno CD137-Fc) was 1.56 and the RLU (human CD137-Fc [4]) was 14100 RLU. The “S/N ratio (human CD137-Fc/Fc)” value (human CD137-Fc [4]) was 6.58, the Signal decrease (human CD137-Fc [5]) was 30.2% and the RLU [6] was 177000 RLU. For the same binder, the “S/N ratio (CD3 peptide/non coating)” value [6] was 148, the ELISA signal (human CD137-Fc [7]) was 1880 and the ELISA signal (human CD137-Fc [8]) was 2700.

B9: H183/L072 with S93Y (Kabat) in VL dBBDu072L (antibody, name in Kabat numbering, V domains shown)
VH: B1 VH
VL: B1 VL with Y60F, S98Y
notes: as for B5
For B9, the “fold change of affinity for CD3” value (Human CD3eg linker) was 0.7 fold.

B10: H183/L072 with V94Y (Kabat) in VL dBBDu072L (antibody, name in Kabat numbering, V domains shown)
VH: B1 VH
VL: B1 VL with Y60F, V99Y
notes: as for B5
B10 was tested, and the “fold change of affinity for CD3” value (Human CD3eg linker) was 0.2 fold.

B11: Dual-Fab H183/L072 variant with single light chain mutation Q90Y (Kabat) (antibody, name in Kabat numbering, V domains shown)
VH: B1 VH
VL: B1 VL with Y60F, Q95Y
notes: expressed as an antibody in Expi293 and purified on Protein A; also called dBBDu183H / dBBDu072L Q90Y
For B11, the “fold change of affinity for CD137” value (Human CD137 ECD) was 0 fold.

B12: H183/L072 with S52Y (Kabat) in VL dBBDu072L (antibody, name in Kabat numbering, V domains shown)
VH: B1 VH
VL: B1 VL with S57Y, Y60F
notes: as for B5
With B12 the “fold change of affinity for CD3” value (Human CD3eg linker) was 1.5 fold.

B13: Dual-Fab H183/L072 variant with single light chain mutation S93Y (Kabat) (antibody, name in Kabat numbering, V domains shown)
VH: B1 VH
VL: B1 VL with Y60F, S98Y
notes: expressed as an antibody in Expi293 and purified on Protein A; also called dBBDu183H / dBBDu072L S93Y
In the case of B13, the “fold change of affinity for CD137” value (Human CD137 ECD) is reported as 0.8 fold.

B14: H183/L072 with P56Y (Kabat) in VL dBBDu072L (antibody, name in Kabat numbering, V domains shown)
VH: B1 VH
VL: B1 VL with Y60F, P61Y
notes: as for B5
With B14 the “fold change of affinity for CD3” value (Human CD3eg linker) was 2.7 fold.

B15: H183/L072 with R54Y (Kabat) in VL dBBDu072L (antibody, name in Kabat numbering, V domains shown)
VH: B1 VH
VL: B1 VL with R59Y, Y60F
notes: as for B5
B15 was tested, and the “fold change of affinity for CD3” value (Human CD3eg linker) was 1.6 fold.
